According to paper PMC7713142, “Crystal structure of the yeast heterodimeric ADAT2/3 deaminase”:

Key:
[1] = target: Saccharomyces cerevisiae ADAT3 (S. cerevisiae)
[2] = target: ScADAT2 (TAD2);ScADAT3 K72A/R73A (Saccharomyces cerevisiae;Saccharomyces …, UniProt P47058;Q9URQ3 1-250;1-322, |K72A;R73A); assay: EMSA; 2 uM tRNA, varied enzyme:tRNA molar ratios; EMSA: 20 mM Tris-HCl pH 8.0, 1 mM DTT, 2 uM tRNA, on ice 60 min; 6% native PAGE, 40 mM Tris-HCl pH 9.0 running buffer; conditions: protein: recombinant;recombinant; tags: none (untagged in co-expression);N-terminal His6, cleaved (PreScission); copies: 1;1; label: none; tRNA cloverleaf
Sequence of ScADAT2 (TAD2);ScADAT3 K72A/R73A (P47058 whole entry, chain 1 of 2): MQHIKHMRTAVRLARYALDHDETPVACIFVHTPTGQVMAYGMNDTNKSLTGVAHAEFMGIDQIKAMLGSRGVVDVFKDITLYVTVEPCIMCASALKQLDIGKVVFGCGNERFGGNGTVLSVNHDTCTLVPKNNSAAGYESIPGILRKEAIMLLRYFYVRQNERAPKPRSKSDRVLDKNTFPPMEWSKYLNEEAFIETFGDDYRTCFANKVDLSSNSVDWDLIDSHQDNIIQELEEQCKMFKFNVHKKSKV
Sequence of ScADAT2 (TAD2);ScADAT3 K72A/R73A (Q9URQ3 whole entry K72A/R73A, chain 2 of 2): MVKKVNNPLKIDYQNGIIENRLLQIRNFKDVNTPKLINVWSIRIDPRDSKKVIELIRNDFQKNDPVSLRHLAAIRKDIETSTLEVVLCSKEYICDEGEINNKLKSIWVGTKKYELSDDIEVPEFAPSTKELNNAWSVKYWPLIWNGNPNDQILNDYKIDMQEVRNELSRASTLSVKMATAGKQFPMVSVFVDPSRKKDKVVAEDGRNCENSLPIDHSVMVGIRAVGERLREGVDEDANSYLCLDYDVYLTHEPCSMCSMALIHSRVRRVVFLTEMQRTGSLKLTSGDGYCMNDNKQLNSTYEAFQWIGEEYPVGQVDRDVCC

[3] = target: ScADAT2 (TAD2);ScADAT3 K50A (Saccharomyces cerevisiae;Saccharomyces …, UniProt P47058;Q9URQ3 1-250;1-322, |K50A); assay: as above; conditions: protein: recombinant;recombinant; tags: none (untagged in co-expression);N-terminal His6, cleaved (PreScission); copies: 1;1; label: none; tRNA cloverleaf
Sequence of ScADAT2 (TAD2);ScADAT3 K50A (P47058 whole entry, chain 1 of 2): as the sequence (P47058 whole entry, chain 1 of 2) above
Sequence of ScADAT2 (TAD2);ScADAT3 K50A (Q9URQ3 whole entry K50A, chain 2 of 2): as the sequence (Q9URQ3 whole entry K72A/R73A, chain 2 of 2) above, with K50A, A72K, A73R counted along it

[4] = target: ScADAT2 (TAD2);ScADAT3 (TAD3) WT (Saccharomyces cerevisiae;Saccharomyces …, UniProt P47058;Q9URQ3 1-250;1-322, |); assay: as above; conditions: protein: recombinant;recombinant; tags: none (untagged in co-expression);N-terminal His6, cleaved (PreScission); copies: 1;1; label: none; tRNA cloverleaf
Sequence of ScADAT2 (TAD2);ScADAT3 (TAD3) WT (P47058 whole entry, chain 1 of 2): as the sequence (P47058 whole entry, chain 1 of 2) above
Sequence of ScADAT2 (TAD2);ScADAT3 (TAD3) WT (Q9URQ3 whole entry, chain 2 of 2): as the sequence (Q9URQ3 whole entry K72A/R73A, chain 2 of 2) above, with A72K, A73R counted along it

[5] = target: ScADAT2 (TAD2);ScADAT3 Del30-148 (Saccharomyces cerevisiae;Saccharomyces …, UniProt P47058;Q9URQ3 1-250;1-322, |del30-148); assay: as above; conditions: protein: recombinant;recombinant; tags: none (untagged in co-expression);N-terminal His6, cleaved (PreScission); copies: 1;1; label: none; tRNA cloverleaf
Sequence of ScADAT2 (TAD2);ScADAT3 Del30-148 (P47058 whole entry, stated change not applied, chain 1 of 2): as the sequence (P47058 whole entry, chain 1 of 2) above
Sequence of ScADAT2 (TAD2);ScADAT3 Del30-148 (Q9URQ3 other isoform, or with tags, fused parts or gaps |del30-148, chain 2 of 2): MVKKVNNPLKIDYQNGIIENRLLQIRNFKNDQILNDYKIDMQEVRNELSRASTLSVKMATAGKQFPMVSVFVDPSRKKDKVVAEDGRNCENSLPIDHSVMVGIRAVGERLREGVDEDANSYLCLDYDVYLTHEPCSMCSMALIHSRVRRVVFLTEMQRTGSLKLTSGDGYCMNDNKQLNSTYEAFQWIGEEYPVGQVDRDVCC

[6] = target: ScADAT2 (TAD2);ScADAT3 R75A/K76A (Saccharomyces cerevisiae;Saccharomyces …, UniProt P47058;Q9URQ3 1-250;1-322, |R75A;K76A); assay: as above; conditions: protein: recombinant;recombinant; tags: none (untagged in co-expression);N-terminal His6, cleaved (PreScission); copies: 1;1; label: none; tRNA cloverleaf
Sequence of ScADAT2 (TAD2);ScADAT3 R75A/K76A (P47058 whole entry, chain 1 of 2): as the sequence (P47058 whole entry, chain 1 of 2) above
Sequence of ScADAT2 (TAD2);ScADAT3 R75A/K76A (Q9URQ3 whole entry R75A/K76A, chain 2 of 2): as the sequence (Q9URQ3 whole entry K72A/R73A, chain 2 of 2) above, with A72K, A73R, R75A, K76A counted along it

Row | Molecule | in vitro deamination of tRNA^Ala by the heterodimer (30 nM enzyme), coupled to cleavage by EcEndoV, against WT [1] | also measured
1 | ScADAT2-D124A/T125A/C126A/T127A (enzyme) | > 50 % activity | –
2 | ScADAT2/F57A (enzyme) | > 50 % activity | –
3 | ScADAT2/I89A (enzyme) | > 50 % activity | –
4 | ScADAT2/S69A (enzyme) | > 50 % activity | –
5 | ScADAT2/L119A/V121A (enzyme) | > 50 % activity | –
6 | tRNAAla (structured_RNA, none (in vitro transcript)) RNA: GGGCGUGUGGCGUAGUCGGUAGCGCGCUCCCUUAGCAUGGGAGAGGUCUCCGGUUCGAUUCCGGACUCGUCCACCA | – | binding result [2]: no binding; binding result [3]: no binding; binding result [4]: binds; binding result [5]: no binding; binding result [6]: no binding

Second part, led by results:

Row | in vitro deamination of tRNA^Ala by the heterodimer (30 nM enzyme), coupled to cleavage by EcEndoV, against WT [1] | Molecule | also measured
7 | > 50 % activity | ScADAT2/S93A (enzyme) | –
8 | > 50 % activity | ScADAT2/V52A (enzyme) | –
9 | > 50 % activity | ScADAT2/Q97A (enzyme) | –
10 | > 50 % activity | ScADAT2/L49A (enzyme) | –
